Results from doi:10.1101/2025.05.13.653593 (bioRxiv, 2025).

Molecular target: T1, EccB5 (encoded by the Rv1782c gene), spotted on the Mtb proteome microarray (Mycobacterium tuberculosis, UniProt P9WNQ9 1-506)
T1 sequence: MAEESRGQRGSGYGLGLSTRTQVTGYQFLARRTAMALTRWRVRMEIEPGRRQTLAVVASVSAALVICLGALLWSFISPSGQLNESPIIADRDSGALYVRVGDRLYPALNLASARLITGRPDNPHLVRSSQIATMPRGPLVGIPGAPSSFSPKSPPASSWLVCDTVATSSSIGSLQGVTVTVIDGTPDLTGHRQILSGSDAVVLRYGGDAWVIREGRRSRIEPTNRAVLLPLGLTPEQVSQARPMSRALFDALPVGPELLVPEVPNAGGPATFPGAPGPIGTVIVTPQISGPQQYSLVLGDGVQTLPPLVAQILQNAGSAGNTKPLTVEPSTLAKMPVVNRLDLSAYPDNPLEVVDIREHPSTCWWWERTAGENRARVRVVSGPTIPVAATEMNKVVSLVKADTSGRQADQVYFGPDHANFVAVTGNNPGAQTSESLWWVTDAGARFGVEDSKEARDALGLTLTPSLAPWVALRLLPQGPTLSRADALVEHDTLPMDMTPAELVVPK
Assay: peptide or protein array
Conditions: both partners purified

B1: recombinant human GSDMD protein (natural protein, UniProt P57764 1-484, looked up)
chain: MGSAFERVVRRVVQELDHGGEFIPVTSLQSSTGFQPYCLVVRKPSSSWFWKPRYKCVNLSIKDILEPDAAEPDVQRGRSFHFYDAMDGQIQGSVELAAPGQAKIAGGAAVSDSSSTSMNVYSLSVDPNTWQTLLHERHLRQPEHKVLQQLRSRGDNVYVVTEVLQTQKEVEVTRTHKREGSGRFSLPGATCLQGEGQGHLSQKKTVTIPSGSTLAFRVAQLVIDSDLDVLLFPDKKQRTFQPPATGHKRSTSEGAWPQLPSGLSMMRCLHNFLTDGVPAEGAFTEDFQGLRAEVETISKELELLDRELCQLLLEGLEGVLRDQLALRALEEALEQGQSLGPVEPLDGPAGAVLECLVLSSGMLVPELAIPVVYLLGALTMLSETQHKLLAEALESQTLLGPLELVGSLLEQSAPWQERSTMSLPPGLLGNSWGEGAPAWVLLDECGLELGEDTPHVCWEPQAQGRMCALYASLALLSGLSQEPH
notes: also called gasdermin D; recombinant GSDMD
binding result: binds
